According to US20170052184A1 (published 2017):

T1: HCV Core1-169 (HCV-1, UniProt P26664 1-169)
T1 construct: also called recombinant HCV core antigen
T1 sequence: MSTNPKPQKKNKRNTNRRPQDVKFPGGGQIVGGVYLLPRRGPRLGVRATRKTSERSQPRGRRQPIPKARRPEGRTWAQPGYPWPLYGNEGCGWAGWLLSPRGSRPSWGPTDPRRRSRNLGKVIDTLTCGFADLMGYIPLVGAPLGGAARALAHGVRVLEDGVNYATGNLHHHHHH

B1: HCV 208B-178 (antibody, V domains shown)
VH: DVKLVESGGGLVKLGGSLKLSCAASGFTFSSYYMSWVRQTPEKRLELVAAINSNGGSTYYPDTVKGRFTISRDNAKNTLYLQMSSLKSEDTALYYCARHGGLGRRDWYFDVWGAGTTVTVSS
VL: DIVLTQSPASLAVSLGQRATISCRASESVDNYGISFMHWYQQKPGQPPKLLIYRASNLESGIPARFSGSGSRTDFTLTINPVETDDVATYYCQQSNKDPFTFGSGAKLEIKR
B2: HCV 208B-1096 (antibody, V domains shown)
VH: QVQLQQSGAGLAKPGASVKMSCKASGYTFTANKMHWAKQRPGQGLEWIGYIDPSSGYTEYNHKIQYKATLTADTSSSTAYMQLSTLTFEDSAVYYCTNFAYWGQGTLVTVSA
VL: DIVMTQTPLTLSVTIGQPASISCKSSQSLLFTNGKTYLNWFLQRPGQSPKRLIYLLSKLDSGVPDRFSGSGSGTDFTLKISRVEAEDLGVYYCLQSTYFPLTFGAGTKLELKR
B3: HCV 208B-589 (antibody, V domains shown)
VH: QVQLQQSGAGLAKPGASVKMSCKASGYTFTANKMHWAKQRPGQGLEWIGYIDPSSGYTEYNHKIQDKATLTADTSSSTAYMQLSSLTFEDSAVYYCTNFAYWGQGTLVTVSA
VL: DIVMTQTPLTLSVTIGQPASISCKSSQSLLFTNGKTYLNWFLQRPGQSPKRLIYLLSKLDSGVPDRFSGSGSGTDFTLKISRVEAEDLGVYYCLQSTYFPLTFGAGTKLELKR
B4: HCV 208A-877 (antibody, V domains shown)
VH: QLQQSGPELVKPGASVKISCKTSGYTFTENAMHWVKQSRGKSLEWIGGVNPNNGDTVYTQKFKGKATLTVAKSSSTAYMELRTMTCEESTVYYCASREPDFFDYWGQGSSVTVSS
VL: QIVLTQSPAIMSVSPGEKVSMTCSASSSVTYMHWYQQKSGTSPKRWIYDTSELASGVPARFSGSGSGTTYSLTISSMEAEDAATYYCQQWSNKPLTFGAGTKLELKR
B5: HCV 208B-1024 (antibody, V domains shown)
VH: EVQLVESGGDLVKPGGSLKLSCAASGFTFSNYGMSWVRQTPDKRLEWVATISSGGSYSYYPDSVKGRFTISRDNAKNILYLQMSSLKSEDTAMYYCASLYYGYGDYWGQGTAFTVSS
VL: DVLMTQTPLSLPVSLGDQASISCRSSQSIVHSNGNTYLEWYLQKLGQSPKLLIYRVSNRFSGVPDRFSGSGSGTDFTLKISRVEAEDLGVYYCFQGSHVPWTFGGGTKLEIKR
B6: HCV 208A-1064 (antibody, V domains shown)
VH: EVQLQQSGPELVKPGASVKISCKTSGYTFTEYAMHWMKQSHGKSLEWIGGINPTNGDTIYNQKFKDKAKLTVDRSSSTAYMELRSLTSDDSALFYCARRELDYFASWGQGTTLTVSS
VL: DIVLTQSPASLIVSLGQTATISCRASQSVSTSRFSYLHWIQQKPGQPPKLLIKYASNLESGVPVRFSGSGSGTDFTLNIHPVEEEDTATYFCQHSWEFPFTFGSGTKLKIKR
B7: HCV 208B-1094 (antibody, V domains shown)
VH: EVQLQQSGPELVKPGASVKISCKTSGYTFTEYAMHWMKQSHGKSLEWIGGINPTNGDTIYNQRFKDKAKLTVDRSSSTAYMELRSLTSDDSALFYCARRELDYFASWGQGTTLTVSS
VL: DIVLTQSPASLIVSLGQTATISCRASQSLSTSRFSYVHWIQQKPGQPPKLLIKYASNLESGVPVRFSGSGSGTDFTLNIHPVEEEDTATYFCQHSWEFPFTFGSGTKLKIKR
B8: HCV 208A-293 (antibody, V domains shown)
VH: EVQLQQSGPELVKPGASVKISCKASGFTFTEYAMHWMKQSHGKSLEWIGGINPTNGDAIYNQKFKDKAKLTVDRSSSTAYMELRSLTSDDSALFYCARRELDYFPSWGQGTTLTVSS
VL: DIVLTQSPASLIVSLGQRATISCRASQSVSTSRFSYVHWIQQKPGQPPKLLIKYASNLESGVPVRFSGSGSGTDFILNIHPVEEEDTATYFCQHSWEFPFTFGSGTKLEIKR

Legend:
[1] = biological target: T1, HCV Core1-169; test: EIA, core1-169 coated on plate
[2] = biological target: T1, HCV Core1-169; test: EIA, core1-169 captured by mAb 14-153-229
Further: test concentration or dose not given here.

Binder	OD (A492) [1]	OD (A492) [2]
B1	0.89 OD	1.09 OD
B2	0.49 OD	1.75 OD
B3	0.68 OD	1.29 OD
B4	0.9 OD	1.25 OD
B5	0.6 OD	0.31 OD
B6	0.94 OD	1.57 OD
B7	0.9 OD	1.51 OD
B8	1.41 OD	2.31 OD
